Assay results from paper PMC9544252.

Experiments:
[1] = molecular target: HIV-1 CAP256 SU Env gp140 produced in HEK293 cells (HIV-1 (subtype C, CAP256 SU)); test: SEC; gel filtration of lectin-purified gp140; normalised, overlaid elution profiles
[2] = molecular target: HIV-1 CAP256 SU Env gp140, "glycan-enhanced" (GE), produced in N. benthamiana ∆XF (HIV-1 (subtype C, CAP256 SU)); test: as above

Row | Substance | stoichiometry N [1] | stoichiometry N [2]
1 | HIV-1 CAP256 SU Env gp140 produced in HEK293 cells (natural protein) | 3 | 
2 | HIV-1 CAP256 SU Env gp140, "glycan-enhanced" (GE), produced in N. benthamiana ∆XF (natural protein) |  | 3
